Results as given in patent US20250313631A1 (HUMMINGBIRD BIOSCIENCE PTE, published 2025).
Where two headings read alike, the source gives them in different places. Values belong to the binder of their own block, whether it stands above or below them.

Key:
[1] = target: T1, mouse VISTA expressed on cells (mouse, UniProt Q9D659 33-308); experiment: flow cytometry on cells transfected with murine VISTA
T1 construct: whole, on cells; also called murine VISTA on transfected cells; VISTA on mouse CD11b+ myeloid cells
T1 sequence (looked up): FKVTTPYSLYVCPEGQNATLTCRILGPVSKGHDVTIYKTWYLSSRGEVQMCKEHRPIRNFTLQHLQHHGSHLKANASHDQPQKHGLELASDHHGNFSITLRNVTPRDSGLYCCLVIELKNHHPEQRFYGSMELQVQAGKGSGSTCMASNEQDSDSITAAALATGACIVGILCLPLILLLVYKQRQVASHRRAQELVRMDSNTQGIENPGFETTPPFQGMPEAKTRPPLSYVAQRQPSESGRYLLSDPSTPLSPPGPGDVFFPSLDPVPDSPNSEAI

[2] = target: T2, recombinant mouse VISTA (His-tagged) (mouse, UniProt Q9D659 33-191); experiment: ELISA, plate coated with mouse VISTA; unit nM from the legend paragraph 697
T2 construct: also called murine VISTA; mVISTA
T2 sequence (looked up): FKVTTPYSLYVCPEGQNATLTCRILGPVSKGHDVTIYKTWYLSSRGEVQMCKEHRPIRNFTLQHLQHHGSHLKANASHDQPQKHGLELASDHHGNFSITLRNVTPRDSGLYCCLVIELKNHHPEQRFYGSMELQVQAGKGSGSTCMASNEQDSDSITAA

[3] = target: T3, recombinant human VISTA (His-tagged) (human, UniProt Q9H7M9 33-194); experiment: ELISA, plate coated with human VISTA
T3 construct: bought soluble protein (Sino Biological); also called hVISTA; human VISTA polypeptide

[4] = target: T2, recombinant mouse VISTA (His-tagged); experiment: ELISA, plate coated with mouse VISTA; unit nM from the legend paragraph 698
[5] = target: T3, recombinant human VISTA (His-tagged); experiment: BLI (Octet), 1:1 global fit, His-tagged human VISTA captured
[6] = target: T2, recombinant mouse VISTA (His-tagged); experiment: BLI (Octet), 1:1 global fit, His-tagged mouse VISTA captured
[7] = target: T2, recombinant mouse VISTA (His-tagged); experiment: ELISA, plate coated with mouse VISTA
[8] = target: T3, recombinant human VISTA (His-tagged); experiment: ELISA, plate coated with human VISTA; remark: listed apart in the source
[9] = target: human CTLA4 (human, UniProt P16410 36-162); experiment: ELISA, plate coated with the antigen
human CTLA4, sequence (P16410 36-162 limits assumed): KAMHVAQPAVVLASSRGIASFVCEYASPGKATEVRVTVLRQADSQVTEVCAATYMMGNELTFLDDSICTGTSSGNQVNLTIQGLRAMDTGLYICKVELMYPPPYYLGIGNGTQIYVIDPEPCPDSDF

[10] = target: T4, human B7H7 (human, UniProt Q9UM44 23-344); experiment: ELISA, plate coated with the antigen
T4 construct: also called HHLA2
T4 sequence (looked up): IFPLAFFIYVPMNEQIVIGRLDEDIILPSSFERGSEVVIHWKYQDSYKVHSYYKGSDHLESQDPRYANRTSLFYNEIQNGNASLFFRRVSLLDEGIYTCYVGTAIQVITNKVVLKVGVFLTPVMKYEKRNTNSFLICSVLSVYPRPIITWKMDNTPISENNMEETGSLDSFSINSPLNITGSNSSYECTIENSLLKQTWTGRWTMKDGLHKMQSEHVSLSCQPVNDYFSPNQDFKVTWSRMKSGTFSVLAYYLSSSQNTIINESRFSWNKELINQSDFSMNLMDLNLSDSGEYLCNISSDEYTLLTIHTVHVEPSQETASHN

[11] = target: T5, human B7H3 (human, UniProt Q5ZPR3 29-461, limits assumed); experiment: ELISA, plate coated with the antigen
T5 construct: also called CD276
T5 sequence (looked up): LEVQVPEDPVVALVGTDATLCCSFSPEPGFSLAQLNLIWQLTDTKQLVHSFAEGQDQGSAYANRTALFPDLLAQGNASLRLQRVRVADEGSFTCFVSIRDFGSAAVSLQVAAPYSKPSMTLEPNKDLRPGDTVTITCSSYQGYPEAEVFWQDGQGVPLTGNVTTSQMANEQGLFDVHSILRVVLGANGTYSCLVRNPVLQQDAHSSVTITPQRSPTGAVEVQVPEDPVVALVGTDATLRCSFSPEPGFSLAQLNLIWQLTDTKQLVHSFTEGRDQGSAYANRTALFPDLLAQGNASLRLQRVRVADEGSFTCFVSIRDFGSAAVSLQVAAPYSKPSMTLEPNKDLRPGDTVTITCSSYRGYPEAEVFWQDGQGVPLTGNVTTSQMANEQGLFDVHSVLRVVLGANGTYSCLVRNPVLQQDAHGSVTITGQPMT

[12] = target: T6, human B7H6 (human, UniProt Q68D85 25-262); experiment: ELISA, plate coated with the antigen
T6 construct: also called NCR3LG1
T6 sequence (looked up): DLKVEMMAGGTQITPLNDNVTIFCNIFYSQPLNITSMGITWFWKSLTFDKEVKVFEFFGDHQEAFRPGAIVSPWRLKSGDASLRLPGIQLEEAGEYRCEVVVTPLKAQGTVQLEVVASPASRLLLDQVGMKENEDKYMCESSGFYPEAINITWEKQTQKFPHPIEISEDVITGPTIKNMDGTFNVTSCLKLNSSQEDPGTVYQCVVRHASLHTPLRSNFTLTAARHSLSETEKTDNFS

[13] = target: human PD-1 (human, UniProt Q15116 25-167); experiment: ELISA, plate coated with the antigen
human PD-1, sequence (Q15116 25-167 limits assumed): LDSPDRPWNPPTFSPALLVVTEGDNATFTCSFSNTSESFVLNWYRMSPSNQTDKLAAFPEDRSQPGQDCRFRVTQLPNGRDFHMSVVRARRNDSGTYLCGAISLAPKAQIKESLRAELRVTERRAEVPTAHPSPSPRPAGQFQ

[14] = target: T7, human B7H4 (human, UniProt Q7Z7D3 25-258, limits assumed); experiment: ELISA, plate coated with the antigen
T7 construct: also called VTCN1
T7 sequence (looked up): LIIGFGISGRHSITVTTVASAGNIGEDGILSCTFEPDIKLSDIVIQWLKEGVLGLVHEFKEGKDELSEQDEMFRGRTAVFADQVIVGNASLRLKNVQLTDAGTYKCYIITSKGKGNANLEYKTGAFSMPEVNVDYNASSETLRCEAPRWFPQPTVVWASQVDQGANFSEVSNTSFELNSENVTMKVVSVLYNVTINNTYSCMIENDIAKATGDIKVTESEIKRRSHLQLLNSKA

[15] = target: T8, recombinant cynomolgus macaque VISTA (His-tagged) (cynomolgus macaque, UniProt A0A7N9IB00 33-194); experiment: ELISA, plate coated with cyno VISTA
T8 construct: also called cyno VISTA; cynomolgus monkey VISTA

[16] = target: T2, recombinant mouse VISTA (His-tagged); experiment: BLI (Octet), 1:1 global fit, His-tagged mouse VISTA captured; remark: listed apart in the source
[17] = target: T3, recombinant human VISTA (His-tagged); experiment: ELISA, plate coated with human VISTA; unit nM from the legend paragraph 697
[18] = target: T3, recombinant human VISTA (His-tagged); experiment: ELISA, plate coated with human VISTA; unit nM from the legend paragraph 698
[19] = target: T9, recombinant rat VISTA (His-tagged) (rat, UniProt A0ABK0L5H3 33-192); experiment: ELISA, plate coated with rat VISTA
T9 sequence: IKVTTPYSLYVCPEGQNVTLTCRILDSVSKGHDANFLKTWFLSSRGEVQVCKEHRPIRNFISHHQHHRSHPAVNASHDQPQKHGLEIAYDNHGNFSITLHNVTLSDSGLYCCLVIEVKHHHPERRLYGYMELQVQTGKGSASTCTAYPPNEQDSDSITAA

[20] = target: T10, human PD-L1 (human, UniProt Q9NZQ7 19-239); experiment: BLI (Octet), His-tagged human PD-L1 on anti-Penta-HIS biosensor, antibody 500-15.6 nM
T10 construct: captured through a His tag in the BLI experiments; also called hPD-L1; B7H1/PDL-1
T10 sequence (Q9NZQ7 19-239 limits assumed): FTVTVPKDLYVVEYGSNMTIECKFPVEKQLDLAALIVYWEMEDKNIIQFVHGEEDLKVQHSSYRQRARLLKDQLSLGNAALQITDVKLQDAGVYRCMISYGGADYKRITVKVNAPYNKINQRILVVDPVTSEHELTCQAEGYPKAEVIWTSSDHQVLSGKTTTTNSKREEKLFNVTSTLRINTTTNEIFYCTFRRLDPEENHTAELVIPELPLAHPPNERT
Procedure: Finally, the biosensors were incubated for 120 sec in PBS pH 7.2 to obtain the dissociation curves. Kinetic and affinity constants were calculated by global fitting of the association and dissociation data to a 1:1 binding model.

binding result [1]: binds
B1: anti-VISTA clone 13D5p IgG1 (antibody, V domains shown)
VH: QVQLQQSGAELVRPGTSVKISCKASGYTFTNYWLGWVKQRPGHGLEWIGDIYPGGGYTNYNEKFKGKATLTADTSSSTAYMQLSSLTSEDSAVYFCARGGYYYGSSWYFDVWGAGTTVTVSS
VL: DVLMTQTPLSLPVSLGDQASISCRSSQSIVHSNGNTYLEWYLQKPGQSPKLLIYKVSNRFSGVPDRFSGSGSGTDFTLKISRVEAEDLGVYYCFQGSHVPPTFGGGTKLEIKR

EC50 [2]: 3 pM
EC50 (read off the curve) [3]: ~20 pM
EC50 [4]: 0.028 nM
Kd [5]: < 1 pM
koff [5]: < 1e-07 s⁻¹
kon [5]: 623000 M⁻¹ s⁻¹
Kd [6]: < 1 pM
koff [6]: < 1e-07 s⁻¹
kon [6]: 344000 M⁻¹ s⁻¹
EC50 [7]: 0.04 nM
EC50 [8]: 0.0408 nM
binding result [9]: no binding (tested: log -7.5 M)
binding result [10]: no binding (tested: log -7.5 M)
binding result [11]: no binding (tested: log -7.5 M)
binding result [12]: no binding (tested: log -7.5 M)
binding result [13]: no binding (tested: log -7.5 M)
binding result [14]: no binding (tested: log -7.5 M)
EC50 [15]: 0.0321 nM
Kd [16]: < 1 pM
koff [16]: < 1e-07 s⁻¹
kon [16]: 570000 M⁻¹ s⁻¹
EC50 [17]: 3.2 pM
EC50 [18]: 0.02 nM
EC50 [19]: 0.224 nM
binding result [20]: no binding (tested: 500 nM)
B2: anti-VISTA clone V4-C31 IgG1 (antibody, V domains shown)
VH: QVQLQESGPGLVKPSDTLSLTCTVSGYSITSDYTWNWIRQTPGKGLEWIGHITYSGSVSYNPSLRSRVTISRDTSKNQFSLKLSSVTAADTATYSCARALYYPWYFDVWGTGTTVTVSS
VL: EIVLTQSPATLSLSPGERATLSCRASSSVGYIHWYQQKPGQAPRPLIYATYYRTTGIPARFSGSGSGTDNTLTISSLEPEDSAVYYCQQWSSYPPITFGGGTKLEVKR
